Measurements reported in PMC9663306.

Assay: flow cytometry of surface IL-17RC, ST2 cells
Conditions: glycan lost; control: SF-IL-17RCWT

B1: IL-17RC: SF-IL-17RCMutE (protein)
parent chain: MPVSWFLLSLALGRNPVVVSLERLMEPQDTARCSLGLSCHLWDGDVLCLPGSLQSAPGPVLVPTRLQTELVLRCPQKTDCALCVRVVVHLAVHGHWAEPEEAGKSDSELQESRNASLQAQVVLSFQAYPIARCALLEVQVPADLVQPGQSVGSAVFDCFEASLGAEVQIWSYTKPRYQKELNLTQQLPDCRGLEVRDSIQSCWVLPWLNVSTDGDNVLLTLDVSEEQDFSFLLYLRPVPDALKSLWYKNLTGPQNITLNHTDLVPCLCIQVWSLEPDSERVEFCPFREDPGAHRNLWHIARLRVLSPGVWQLDAPCCLPGKVTLCWQAPDQSPCQPLVPPVPQKNATVNEPQDFQLVAGHPNLCVQVSTWEKVQLQACLWADSLGPFKDDMLLVEMKTGLNNTSVCALEPSGCTPLPSMASTRAARLGEELLQDFRSHQCMQLWNDDNMGSLWACPMDKYIHRRWVLVWLACLLLAAALFFFLLLKKDRRKAARGSRTALLLHSADGAGYERLVGALASALSQMPLRVAVDLWSRRELSAHGALAWFHHQRRRILQEGGVVILLFSPAAVAQCQQWLQLQTVEPGPHDALAAWLSCVLPDFLQGRATGRYVGVYFDGLLHPDSVPSPFRVAPLFSLPSQLPAFLDALQGGCSTSAGRPADRVERVTQALRSALDSCTSSSEAPGCCEEWDLGPCTTLE
- localisation_or_trafficking: decreases
